From patent US20220064274A1 (SHANGHAI YILE BIOTECHNOLOGY, published 2022)
No end group written: not given here.

B1: 2H8 Monoclonal antibody (antibody, V domains shown)
VH: EVQLVETGGGLVQPGGSLRLSCAASGFTFSSYGMHWVRQAPGKGLEWVSVISGSGDSTYYAESVKGRFTISRDNARNTVYLQMNSLRAEDTAVYYCASGILTGYVFDYWGKGTMVTVSS
VL: DVVMTQSPLSLPVTLGQPASISCRSSQSLVSNDGNTYLNWFQQRPGQPPRRLIYMVSKWDSGVPDRFSGSGSGTDFTLRISRVEAEDVGVYYCMQSTHWPPTFGGGTKLEIKR
notes: also called recombinant monoclonal antibody 2H8
B2: 1D3 Monoclonal antibody (antibody, V domains shown)
VH: QVQLVESGGGLIQPGGSMRLSCAASGFSLSGYDMHWVRQIAGKGLEWVAGLGMEGDSYYSASVKGRFTISRQDAKNSLYLEMKDLGGGDTAVYYCLRDVHGFDVWGQGTTVTVSS
VL: DVVMTQSPLSLPVTPGEPASISCRSSQSLLYSNGYTYLDWYLQRPGQSPQLLIYMGSNRASGVPDRFSGSGSGTDFTLKISRVEAEDVGVYYCMQALQTPLTFGGGTKLEIKR
notes: also called recombinant monoclonal antibody 1D3; fully human monoclonal antibody 1D3

How the values were obtained:
[1] = biological target: T1, GST-huBDNFpro4; assay: ELISA, GST fusion protein coated, absorbance at 450 nm
T1 construct: Printed on the sheet without the E ('GST-huBDNFpro4'); also called E4; GST-human proBDNF-E4 peptide
T1 peptide: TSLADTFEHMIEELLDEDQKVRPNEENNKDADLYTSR
Description: (§1) The five peptides were fused with GST and expressed, and then purified. The binding of antibodies 1D3 and 2H8 was detected by ELISA.

[2] = biological target: T2, human proBDNF precursor protein (human, UniProt P23560 19-247); assay: SPR, Biacore T200, capture method, human proBDNF precursor protein at 0.25-8 nM
T2 construct: also called human proBDNF precursor recombinant protein
T2 sequence (looked up): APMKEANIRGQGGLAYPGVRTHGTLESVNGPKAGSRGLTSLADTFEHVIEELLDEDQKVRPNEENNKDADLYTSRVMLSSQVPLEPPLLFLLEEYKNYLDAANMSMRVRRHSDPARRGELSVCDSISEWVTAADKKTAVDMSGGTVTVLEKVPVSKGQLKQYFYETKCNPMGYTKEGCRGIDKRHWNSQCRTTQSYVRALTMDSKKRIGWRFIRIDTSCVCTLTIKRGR
Experimental: The affinity and kinetic parameters of the 1D3 and 2H8 monoclonal antibodies were measured by the capture method using the Biacore T200 system (purchased from GE). The operation is referred to the instruction. The adopted concentrations of human proBDNF precursor protein were 0.25nM, 0.5nM, 1nM, 2nM, 4nM and 8nM, respectively. The Biacore T200 evaluation software was used to evaluate the obtained action curve and to calculate the KD value of affinity . FIG. 1A and FIG. 1B respectively show the kinetic curves of monoclonal antibodies 1D3 and 2H8 in the Biacore affinity determination experiment.

[3] = biological target: T3, LL peptide (human, also: biotinylated, position not given here); assay: ELISA, biotinylated peptide
T3 construct: Synthetic; also called Biotinylated LL peptide
T3 peptide: LLFLLEEYKNYL
Description: (§2) The E5 peptide was further divided into three equal peptide segments, each comprising 12 amino acids, namely VP peptide ([…], SEQ ID NO: 33), LL peptide ([…], SEQ ID NO: 34), DH Peptide ([…], SEQ ID NO: 35). Biotinylated VP peptide, LL peptide and DH peptide were synthesized in vitro by GL Biochemical (Shanghai) Ltd. and the binding of antibodies was detected by ELISA.

[4] = biological target: T4, DH Peptide (human, also: biotinylated, position not given here); assay: ELISA, biotinylated peptide
T4 construct: Synthetic; also called polypeptide DH; Biotinylated DH peptide
T4 peptide: DAANMSMRVRRH
Description: as §2

[5] = biological target: T5, VP peptide (human, also: biotinylated, position not given here); assay: ELISA, biotinylated peptide
T5 construct: Synthetic; also called Biotinylated VP peptide
T5 peptide: VMLSSQVPLEPP
Description: as §2

[6] = biological target: T6, GST-human proBDNF-E5 peptide (human); assay: ELISA on GST fusion proteins
T6 construct: not shown: GST (glutathione S-transferase) fusion partner
T6 chain: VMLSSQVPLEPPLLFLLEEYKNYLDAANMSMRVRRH
Description: as §1

[7] = biological target: T7, GST-human proBDNF-E2 peptide (human, UniProt P23560 76-129); assay: ELISA on GST fusion proteins
T7 construct: not shown: GST (glutathione S-transferase) fusion partner
T7 sequence: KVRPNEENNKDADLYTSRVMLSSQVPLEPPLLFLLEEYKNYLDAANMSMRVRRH
Description: as §1

Binder | binding result [1] | Kd [2] | koff [2] | kon [2] | binding result [3] | binding result [4] | binding result [5] | binding result [6] | binding result [7]
B1 | no binding | 1.91 nM | 0.00594 s⁻¹ | 3.1e+06 M⁻¹ s⁻¹ | no binding | binds | no binding | binds | 
B2 | no binding |  |  |  | no binding | binds | no binding | binds | binds
